Measurements published in publication PMC7954794, “Protein context shapes the specificity of SH3 domain-mediated interactions in vivo” (Nature Communications, 2021).

System: PPIs identified as affected by the SH3 domain deletions
Assay: Liquid DHFR-PCA low-throughput validation of PPIs affected by SH3 deletion (Fig. S1D-E)
Format: cell-based, Saccharomyces cerevisiae
Details: label = prey, liquid DHFR-PCA, prey _1 = lost, _2 = gained in screen
In short: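 Yeast diploids from DHFR-PCA mating grown 48 h in synthetic complete MSG medium pH 6.0 with NAT and HPH, normalized to 1 OD and diluted to 0.1 OD in liquid PCA selection medium. Growth followed by OD every 15 min for 72 h at 30 °C.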

B1: YER114C_1 (protein, UniProt P39969 1-1040, looked up)
BEM1-interacting protein 2: MSNDREVPTLSQLNTTVSRDKDVSDTLSPDFDSKGSATGRDGGNFPMYIAINEYFKRMEDELDMKPGDKIKVITDDEEYKDGWYFGRNLRTNEEGLYPVVFTQKITVEKAPTLMRAKSTKRIYSPLTNEDPLLSSTFISENDSNSELPTPQPIETAASISRTANGKIERNLSLKNTMSDIDNALLEFKDDSIGPPDRFINSGRDEEHSITHETILSATDGLDVVESNSKPTTSSSTGFLNGDLENQATLINGIDTTKLNPVEAEFWSPEEITAYFIMEGYDVQSASRFQKHKISGKILLELELVHLKELDINSFGTRFEIFKEIEKIKEAIRTNGRSLNRASKTNNANIYNQLMPPANVDQRASYRGHVRKTSQSLEDLPSQQNFIPTPRNTRNSSASKHRPKSLVFDSQEANANIAPDVQIPQVVEEMAGNENLFVSPRRAPKPPSYPSPAQPPKSPLLNNTRTSPSPAQLYSWQSPTLSFSGPKRTSYIDQYSSSDSNFNSRSALPKNNQGGGKALSPIPSPTRNSVRNEDSEGKLTSSSKRNSVPYYGYAPESSSDRKSSCSSHEEEQFQETMNTFERPTSSIYADGSTIASISNDKLAHEKEGKKKPTRHSSSLSSKSKSDSRRNSSLKRSSSASRTSSFKKSSFMLSPFRQQFTDNAARSSSPEENPITSMPSEKNSSPIVDKKSSKKSRSKRRSVSAKEAEIFTETVKDDKNKRSASEAIKGETLKGKSLRQMTARPVAKKKQTSAFIEGLRSISVKEAMKDADFSGWMSKKGSGAMSTWKTRFFTLHGTRLSYFSSTTDTRERGLIDITAHRVVPAKEDDKLVSLYAASTGKGRYCFKLLPPQPGSKKGLTFTQPRTHYFAVDNKEEMRGWMAALIKTTIDIDTSVPIISSYTTPTVSLSKAQEMLAEAREETKLREQQMLENEEDEDQFLWDQQQLQQQQHDNNQGQADRTISASTQRTSDEDNTISTPNLSSANNTTIGSNGFSSPFLLASGLLSPGVARNSSMRGTEKKGKFSTEEDYFGDNSKHKTDKI
With B1 the “Ratio (Deletedscore / WTscore)” value (bait BEM1-2) was 0.3794.

B2: YJR076C_1 (protein, UniProt P32458 2-415, looked up)
Cell division control protein …: SGIIDASSALRKRKHLKRGITFTVMIVGQSGSGRSTFINTLCGQQVVDTSTTILLPTDTSTEIDLQLREETVELEDDEGVKIQLNIIDTPGFGDSLDNSPSFEIISDYIRHQYDEILLEESRVRRNPRFKDGRVHCCLYLINPTGHGLKEIDVEFIRQLGSLVNIIPVISKSDSLTRDELKLNKKLIMEDIDRWNLPIYNFPFDEDEISDEDYETNMYLRTLLPFAIIGSNEVYEMGGDVGTIRGRKYPWGILDVEDSSISDFVILRNALLISHLHDLKNYTHEILYERYRTEALSGESVAAESIRPNLTKLNGSSSSSTTTRRNTNPFKQSNNINNDVLNPASDMHGQSTGENNETYMTREEQIRLEEERLKAFEERVQQELLLKRQELLQREKELREIEARLEKEAKIKQEE
B2 was tested, and the “Ratio (Deletedscore / WTscore)” value (bait BEM1-2) was 0.6782, the “Ratio (Deletedscore / WTscore)” value (bait MYO3) was 0.8182 and the “Ratio (Deletedscore / WTscore)” value (bait MYO5) was 0.9436. The “Ratio (Deletedscore / WTscore)” value (bait RVS167) was 1.148.

B3: YLR314C_1 (protein, UniProt P32457 2-520, looked up)
Cell division control protein …: SLKEEQVSIKQDPEQEERQHDQFNDVQIKQESQDHDGVDSQYTNGTQNDDSERFEAAESDVKVEPGLGMGITSSQSEKGQVLPDQPEIKFIRRQINGYVGFANLPKQWHRRSIKNGFSFNLLCVGPDGIGKTTLMKTLFNNDDIEANLVKDYEEELANDQEEEEGQGEGHENQSQEQRHKVKIKSYESVIEENGVKLNLNVIDTEGFGDFLNNDQKSWDPIIKEIDSRFDQYLDAENKINRHSINDKRIHACLYFIEPTGHYLKPLDLKFMQSVYEKCNLIPVIAKSDILTDEEILSFKKTIMNQLIQSNIELFKPPIYSNDDAENSHLSERLFSSLPYAVIGSNDIVENYSGNQVRGRSYPWGVIEVDNDNHSDFNLLKNLLIKQFMEELKERTSKILYENYRSSKLAKLGIKQDNSVFKEFDPISKQQEEKTLHEAKLAKLEIEMKTVFQQKVSEKEKKLQKSETELFARHKEMKEKLTKQLKALEDKKKQLELSINSASPNVNHSPVPTKKKGFLR
B3 was tested, and the “Ratio (Deletedscore / WTscore)” value (bait BEM1-2) was 0.9934 and the “Ratio (Deletedscore / WTscore)” value (bait NBP2) was 0.9977.

B4: YDL146W_1 (protein, UniProt Q12342 1-491, looked up)
Protein LDB17: MILDPLSPNIENHTQDEIIEFWEKTESIANIPKENLDESHVNSSLVAYLKFATDSYKVFINTDRDLYRMSLILLESSLFEFKKEFCLSKLQSLLNIDLLEMNMKFIIVYILLCEAKKNVYSLEIMLKFQGFTVFYNTLYTQFAYLSKYGKERTVASKHQYNSNNSSTGTSLDSLDRSLTDIDLGIIDEMKQISTVLMDLLFQIMKYCKCVIANLQIVDDFFVYYMMESMRSDTMDDMFNNAEFKLLLALNEQYMMFAKEYDIENKVYKYLINGSVSRCFTELLLLKFNRASDPPLQIMMCKIIYLILTPRGDYSPMNFFYTNDLRVLIDVLIRELQNISEDEEVLRNTLLRVLIPLLKNTQLSKTHYRKDDLNKLLNYLSTLDNICVDSPALHEHQVTVALSRKCLQQIPWLETPSTPSDGGSSVSSNNTSRNSSIVALGTPDNQNILARKGHLYSNRELDVSAESLTKRKAKAPPPPPPPPPSRKCGTPK
B4 was tested, and the “Ratio (Deletedscore / WTscore)” value (bait BZZ1-1) was 0.5572, the “Ratio (Deletedscore / WTscore)” value (bait BZZ1-2) was 0.7122 and the “Ratio (Deletedscore / WTscore)” value (bait LSB3) was 0.6902.

B5: YKL129C_1 (protein, UniProt P36006 1-1272, looked up)
Myosin-3: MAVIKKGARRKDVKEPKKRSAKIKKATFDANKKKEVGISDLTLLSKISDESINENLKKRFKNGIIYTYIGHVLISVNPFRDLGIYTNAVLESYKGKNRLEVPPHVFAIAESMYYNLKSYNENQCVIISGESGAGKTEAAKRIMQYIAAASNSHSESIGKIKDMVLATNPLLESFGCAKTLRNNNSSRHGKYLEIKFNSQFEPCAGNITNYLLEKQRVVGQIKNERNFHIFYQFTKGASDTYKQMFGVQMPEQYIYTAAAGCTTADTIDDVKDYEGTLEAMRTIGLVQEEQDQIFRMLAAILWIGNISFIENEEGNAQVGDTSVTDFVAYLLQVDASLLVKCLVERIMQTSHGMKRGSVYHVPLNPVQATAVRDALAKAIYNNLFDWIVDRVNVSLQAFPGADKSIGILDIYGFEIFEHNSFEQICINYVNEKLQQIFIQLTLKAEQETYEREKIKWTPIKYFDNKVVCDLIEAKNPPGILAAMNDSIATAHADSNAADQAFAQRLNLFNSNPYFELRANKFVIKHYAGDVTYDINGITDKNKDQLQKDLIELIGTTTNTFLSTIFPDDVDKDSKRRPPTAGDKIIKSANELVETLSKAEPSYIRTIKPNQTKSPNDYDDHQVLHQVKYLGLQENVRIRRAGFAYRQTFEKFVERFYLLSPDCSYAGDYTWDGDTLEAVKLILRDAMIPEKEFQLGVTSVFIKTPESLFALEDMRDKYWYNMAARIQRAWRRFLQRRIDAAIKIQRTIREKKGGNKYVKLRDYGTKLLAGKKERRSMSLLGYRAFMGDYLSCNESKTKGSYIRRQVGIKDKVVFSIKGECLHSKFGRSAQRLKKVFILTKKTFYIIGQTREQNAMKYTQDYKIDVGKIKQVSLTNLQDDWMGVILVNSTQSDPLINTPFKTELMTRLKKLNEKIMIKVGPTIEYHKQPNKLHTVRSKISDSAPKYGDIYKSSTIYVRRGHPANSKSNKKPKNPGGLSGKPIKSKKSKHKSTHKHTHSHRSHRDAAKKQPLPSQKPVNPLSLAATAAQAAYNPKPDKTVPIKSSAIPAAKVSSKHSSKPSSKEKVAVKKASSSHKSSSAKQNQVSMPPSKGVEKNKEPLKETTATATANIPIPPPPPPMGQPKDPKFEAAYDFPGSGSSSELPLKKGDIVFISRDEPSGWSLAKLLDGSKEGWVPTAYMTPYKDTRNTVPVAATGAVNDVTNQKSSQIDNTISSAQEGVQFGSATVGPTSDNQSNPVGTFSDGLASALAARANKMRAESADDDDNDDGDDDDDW
For B5, the “Ratio (Deletedscore / WTscore)” value (bait BZZ1-1) was 0.69 and the “Ratio (Deletedscore / WTscore)” value (bait PIN3) was 0.7986.
